Results: US20220389085A1 (BIONOXX, published 2022)
Residue numbers refer to the chain shown, from its start.

T1: protein A56 of the oncolytic virus OTS-412 (vaccinia virus (OTS-412), UniProt P08714 17-315)
T1 construct: also called OTS-412-A56; protein A56 variant
T1 chain: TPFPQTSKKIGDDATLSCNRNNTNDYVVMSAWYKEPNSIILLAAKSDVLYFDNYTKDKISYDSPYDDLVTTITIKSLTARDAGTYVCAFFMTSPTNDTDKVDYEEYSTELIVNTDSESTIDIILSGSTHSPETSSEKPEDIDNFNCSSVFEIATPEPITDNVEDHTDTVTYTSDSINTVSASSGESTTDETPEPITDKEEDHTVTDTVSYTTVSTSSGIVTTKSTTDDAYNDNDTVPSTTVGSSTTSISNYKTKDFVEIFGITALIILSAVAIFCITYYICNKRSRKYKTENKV

B1: A56-35G07 (Ab51) (antibody, V domains shown)
VH: QMQLVQSGAEVRKPGSSVKVSCKASGDTFSSYAVSWVRQAPGLGLEWMGRTIPRLGATSYAQNFQGRVSITADKSTNTVYMELSGLRSEDTAVYYCARYIPLVRGVRQPRDDFEIWGPGTMITVSS
VL: DIQMTQSPGTLSLSPGERATLSCRASQSVSSSYLAWYQQKPGQAPRLLIYGASSRATGIPDRFSGSGSGTDFTLTISSLEPEDFAVYYCQHRKSWPPGATFGQGTRLEIK
B2: A56-01F12 (Ab08) (antibody, V domains shown)
VH: QVQLVESGGEVKKPGSSVKVSCKASGGSFSTYAISWVRQAPGQGLEWMGRIIPISDIRNYAQKFQGRVTLTADRATSTAYMELSSLRSEDTAVYYCAKGGRLLSTHFDYWGQGTLVTVSS
VL: QLVLTQPPSVSAAPGQKVTISCSGSSSNIGNNYVSWYQQLPGTAPKLLIYDDDKRPSGIPDRFSGSKSGTSATLGITGLQTGDEADYYCGTWHSGLSAGVVFGGGTKLTVL
B3: A56-02A02 (Ab13) (antibody, V domains shown)
VH: QMQLVESGAEVKKTGSSVKVSCKASGDTLTYRFLHWVRQAPGQAPEWMGWITPFNDNTNYAQKFQDRVTITRDRSMSTAYMELSSLRSEDTAVYYCATGGGNNYYGMEVWGQGTPITVSS
VL: SYELTQPLSLSVSPGQTASITCSGDKLGDKFTSWYQQQPGQSPVLVIYQDAKRPSGIPERFSGSNSGSTATLTISGTQSMDEADYYCQAWDSSSVVFGGGTKLTVL
B4: LakePharma variant3 (antibody)
VH: QVQLQQSGPELVKPGASMKLSCKASGYSFTGYTMNWVKQSHGKNLEWIGLINPYNGGTSYNQKFKGKATLTVDKSSSTAYMELLSLTSEDSAVYYCARSHYRYDYWYFDVWGAGTTVTVSSAKTTPPSVYPLAPGSAAQTNSMVTLGCLVKGYFPEPVTVTWNSGSLSSGVHTFPAVLQSDLYTLSSSVTVPSSTWPSETVTCNVAHPASSTKVDKKIVPRDCGCKPCICTVPEVSSVFIFPPKPKDVLTITLTPKVTCVVVDISKDDPEVQFSWFVDDVEVHTAQTQPREEQFNSTFRSVSELPIMHQDWLNGKEFKCRVNSAAFPAPIEKTISKTKGRPKAPQVYTIPPPKEQMAKDKVSLTCMITDFFPEDITVEWQWNGQPAENYKNTQPIMDTDGSYFVYSKLNVQKSNWEAGNTFTCSVLHEGLHNHHTEKSLSHSPGK
VL: DVVMTQTPLSLPVSLGDQASISCRSSQSLVHSNGNTYLHWYLQKPGQSPKLLIYKVSNRFSGVPDRFSGSGSGTDFTLKISRVEAEDLGVYFCSQSTHVPPFTFGSGTKLEIKRADAAPTVSIFPPSSEQLTSGGASVVCFLNNFYPKDINVKWKIDGSERQNGVLNSWTDQDSKDSTYSMSSTLTLTKDEYERHNSYTCEATHKTSTSPIVKSFNRNEC
notes: also called LP variant3; LPvariant03
B5: LakePharma variant4 (antibody)
VH: B4 VH with Q1E
VL: B4 VL
notes: also called LP variant4; LPvariant04
B6: A56-02C06 (Ab18) (antibody, V domains shown)
VH: QVQLVESGGGLVQPGKSLRLSCAASGFTFSTYGMTWVRQAPGKGLEWVSGISGGGSSTNYADSVKGRFIISRDNSNNTLYLQMNSLRAEDTAVYYCARWGVMLSFDYWGQGTPVTVSS
VL: DIQMTQSPSTLPASVGDRVTITCRASYSVSPWLAWYQQKPGKAPKLLIYKASTLESGVPSRFSGSGSGTEFTLTISSLQPDDFATYYCQQFNSYMMYTFGQGTKLEIK
B7: A56-44G01 (Ab55) (antibody, V domains shown)
VH: QVQLVESGGGVVQPGRSLRLSCAASGFTFSSYAMHWVRQAPGKGLEWVAVISYDGSNKYYADSVKGRFTISRDNSKNTLYLQMNSLRAEDTAVYYCAKDLWGRVGALVGALDLWGQGTMITVSS
VL: SYELTQGPSLSVSPGQTANIICSGDNLRTKYVSWYQQKPGQSPILVIYQDTRRPSGIPARFSGSNSGNTATLTISGTQAMDEADYYCQAWDSGNYVFGTGTKVTVL
B8: A56-02C07 (Ab19) (antibody, V domains shown)
VH: QVQLVESGAEVRRPGSSVKVSCKTSGVTFSGYVLSWVRQAPGHGLEWMGRIIPLIDVENYAREFQGRMKITADKSTNTVYMELNNLRSEDTAVYYCAKSVVRGLDYYYYGFDVWGQGTTVTVSS
VL: SYELTQPPSLSVAPGKTARITCGGNNIGSKSVHWYQQKPGQAPRLVTYYDGNRPSGIPERFSGSNSGNTATLIISRVEAGDEADYYCQVWDSSSDQGVFGTGTKVTVL
B9: A56-01A02 (Ab01) (antibody, V domains shown)
VH: QMQLVQSGAEVKKPGSSVKVSCKASGGTFSSYAISWVRQAPGQGLEWMGGIIPIFGTANYAQKFQGRVTMTRDTSTSTVYMELSSLKSEDTAVYYCARFVFGSGTYLDSWGQGTLVTVSS
VL: not shown
B10: A56-01A04 (Ab03) (antibody, V domains shown)
VH: QVQLVESGAEVKKPGSSVKVSCKASGGTFSYRYLHWVRQASGQALEWMGWITPFNGYTNYAQKFQDRVTITRDRSMSTAYMELSSLRSEDTAVYYCVTGLGKTNLDSWGQGTLVTVSS
VL: DIVMTQTPLSSPVTLGQPASISCRSSQSLVHSNGNTYLSWLQQRPGQPPRLLIYQISKRFSGVPDRFSGSGAGTDFTLKISRVEAEDVGVYYCMQLTQFPLTFGGGTKVEIK
B11: A56-02B01 (Ab14) (antibody, V domains shown)
VH: QVQLVQSGGGVVQPGRSLRLSCAASGFTFSNYGMHWVRQAPGKGLEWMAFIWFDGSNKFYADSVKGRFTVSRDNSKNTLFLQMNSLRAEDTAVYYCAKAAHLWGAFDIWGQGTMVTVSS
VL: DIQMTQSPDTLSLSPGERATLSCRASQSVSSYLAWYQQKPGQAPRLLIYGASNRATGIPARFSGSGSGTDFALTIGRLEPEDFAVYYCQQYATSPLSFGGGTKVEIK
B12: A56-02B08 (Ab16) (antibody, V domains shown)
VH: QVQLQQSGPGLVKPSQTLSLTCAISGDSVSSNSAAWNWIRQSPSRGLEWLGRTYYRSKWYNDYAVSVKSRITINPDTSKNQFSLQLNSVTAVDTAVYYCAKSYAGPISYYYYGLDVWGQGTTVTVSS
VL: QSALTQPASVSGSPGQSVTISCTGTSSDIGRYNLVSWYQQHPGKAPKLMIYGGSKRPSGVSNRFSGSNSDNTASLTISGLRAEDEADYYCSSYASSSTPYVFGTGTKVTVL

Columns and labels:
[1] = target: T2, protein A56 of the oncolytic virus WOTS-418 (vaccinia virus (WOTS-418, Western …, UniProt Q01218 17-314)); experiment: flow cytometry, A549 cells treated with WOTS-418
T2 construct: also called WOTS-418-A56; protein A56 variant

[2] = target: T1, protein A56 of the oncolytic virus …; experiment: flow cytometry, MCF7 cells treated with OTS-412
[3] = target: T2, protein A56 of the oncolytic virus …; experiment: flow cytometry, MCF7 cells treated with WOTS-418
[4] = target: T2, protein A56 of the oncolytic virus …; experiment: flow cytometry, PC3 cells treated with WOTS-418 (overlay, FIG. 75)
[5] = target: T1, protein A56 of the oncolytic virus …; experiment: flow cytometry, PC3 cells treated with OTS-412 (overlay, FIG. 74)
[6] = target: T1, protein A56 of the oncolytic virus …; experiment: flow cytometry, A549 cells treated with OTS-412
[7] = target: T2, protein A56 of the oncolytic virus …; experiment: flow cytometry, PC3 cells treated with WOTS-418
[8] = target: T1, protein A56 of the oncolytic virus …; experiment: flow cytometry, PC3 cells treated with OTS-412

Row | Binder | binding signal (flow cytometry, %) [1] [%] | binding signal (flow cytometry, %) [2] [%] | binding signal (flow cytometry, %) [3] [%] | binding signal (flow cytometry, %) [4] [%] | binding signal (flow cytometry, %) [5] [%] | binding signal (flow cytometry, %) [6] [%] | binding signal (flow cytometry, %) [7] [%] | binding signal (flow cytometry, %) [8] [%]
1 | B1 | ≥ 90 | ≥ 80 | ≥ 80 | ≥ 60 | ≥ 60 | ≥ 90 |  | 
2 | B2 | ≥ 90 | ≥ 80 | ≥ 80 | ≥ 60 | ≥ 60 | ≥ 90 |  | 
3 | B3 | ≥ 90 | ≥ 80 | ≥ 80 | ≥ 60 | ≥ 60 | ≥ 90 |  | 
4 | B4 | ≥ 93 |  |  |  |  | ≥ 93 | ≥ 90 | ≥ 90
5 | B5 | ≥ 93 |  |  |  |  | ≥ 93 | ≥ 90 | ≥ 90
6 | B6 |  | ≥ 80 | ≥ 80 | ≥ 60 | ≥ 60 |  |  | 
7 | B7 | ≥ 90 | ≥ 80 | ≥ 80 | ≥ 60 | ≥ 60 | ≥ 90 |  | 
8 | B8 | ≥ 90 | ≥ 80 | ≥ 80 | ≥ 60 | ≥ 60 | ≥ 90 |  | 
9 | B9 | ≥ 90 | ≥ 80 | ≥ 80 | ≥ 60 | ≥ 60 | ≥ 90 |  | 
10 | B10 | ≥ 90 | ≥ 80 | ≥ 80 | ≥ 60 | ≥ 60 | ≥ 90 |  | 
11 | B11 | ≥ 90 | ≥ 80 | ≥ 80 | ≥ 60 | ≥ 60 | ≥ 90 |  | 
12 | B12 |  | ≥ 80 | ≥ 80 | ≥ 60 | ≥ 60 |  | ≥ 70 | ≥ 70
